For this experiment, the target named is recombinant CquiOBP1, odorant-binding protein from Culex pipiens quinquefasciatus (Culex pipiens quinquefasciatus). The experiment in a line: SEC; gel filtration of purified recombinant CquiOBP1 on Superdex-75 26/60, 150 mM NaCl, 20 mM Tris-HCl pH 8; monomer and dimer peaks isolated; the dimer slowly dissociates into monomer (1 hour at room temperature, overnight at 4°C).

“recombinant CquiOBP1, odorant-binding protein from Culex pipiens quinquefasciatus (natural protein)”: the stoichiometry N is 2.

Values taken from paper PMC2516325.
